Experimental data published in patent US20220204580A1 (AstraZeneca / MedImmune, published 2022).
Numbered stars: 1 amine (or outer) side, 2 acyl side, 3 side chain; on linkers, the order of the positions; unused ones are H or OH. Bridge positions count the residues as written; N and C are the ends. Square brackets hold non-standard residues; d marks the D form. Side chains are listed from the residue outwards. Ends that are not written are not given here. * marks the point of attachment. C18 diacid = O=C(O)CCCCCCCCCCCCCCCCC(=O)*; γGlu = O=C(O)[C@H](CCC(=O)[*:2])N[*:1]; AEEA = NCCOCCOCC(=O)O; Aib = CC(C)(N)C(=O)O

Tests used:
[1] = target: T1, human amylin receptor (calcitonin receptor co-expressed with receptor activity modifying protein, RAMP3) (human, UniProt P30988 25-474; O60896 24-148); assay: cell-based or functional assay
T1 sequence (looked up) 1: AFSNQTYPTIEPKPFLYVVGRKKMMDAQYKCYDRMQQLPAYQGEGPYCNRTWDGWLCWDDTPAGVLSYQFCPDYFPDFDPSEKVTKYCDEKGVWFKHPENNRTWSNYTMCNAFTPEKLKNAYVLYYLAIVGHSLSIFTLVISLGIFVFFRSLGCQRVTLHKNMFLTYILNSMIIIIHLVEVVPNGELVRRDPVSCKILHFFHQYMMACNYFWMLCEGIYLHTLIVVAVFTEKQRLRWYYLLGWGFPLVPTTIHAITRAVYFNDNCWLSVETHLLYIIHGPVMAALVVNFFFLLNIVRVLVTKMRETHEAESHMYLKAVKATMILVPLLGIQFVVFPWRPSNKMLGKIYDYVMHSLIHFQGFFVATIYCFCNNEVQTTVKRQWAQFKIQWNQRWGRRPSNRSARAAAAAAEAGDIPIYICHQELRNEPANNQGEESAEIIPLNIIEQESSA
T1 sequence (looked up) 2: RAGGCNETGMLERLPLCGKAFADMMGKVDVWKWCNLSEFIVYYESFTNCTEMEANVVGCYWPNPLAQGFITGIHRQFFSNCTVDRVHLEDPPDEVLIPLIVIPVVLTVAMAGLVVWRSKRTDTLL

[2] = target: T2, human calcitonin receptor (human, UniProt P30988 25-474); assay: cell-based or functional assay
T2 sequence (looked up): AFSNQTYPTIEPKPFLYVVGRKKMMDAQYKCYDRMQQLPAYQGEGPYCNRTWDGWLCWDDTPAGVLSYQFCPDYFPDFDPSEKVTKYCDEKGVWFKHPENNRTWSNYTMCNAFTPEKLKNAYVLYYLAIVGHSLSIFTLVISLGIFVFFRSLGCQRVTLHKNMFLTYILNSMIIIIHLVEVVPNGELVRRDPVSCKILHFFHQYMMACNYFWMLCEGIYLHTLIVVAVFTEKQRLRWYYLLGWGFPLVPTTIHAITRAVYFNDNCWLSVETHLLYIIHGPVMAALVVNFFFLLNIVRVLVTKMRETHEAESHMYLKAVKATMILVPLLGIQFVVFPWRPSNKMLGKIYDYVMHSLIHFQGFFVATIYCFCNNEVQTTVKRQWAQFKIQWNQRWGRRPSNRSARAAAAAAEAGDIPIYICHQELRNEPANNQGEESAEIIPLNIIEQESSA

B1: Peptide 50 (SEQ ID NO: 50) (peptide)
peptide: K([γGlu-γGlu-C18 diacid])CNTATCATQRLANFLRHSS[Aib]NFGPILPPTEVGSNTY-NH2
modifications: disulfide 2-7; N-terminus assumed
SMILES: CC[C@H](C)[C@H](NC(=O)[C@@H]1CCCN1C(=O)CNC(=O)[C@H](Cc1ccccc1)NC(=O)[C@H](CC(N)=O)NC(=O)C(C)(C)NC(=O)[C@H](CO)NC(=O)[C@H](CO)NC(=O)[C@H](Cc1c[nH]cn1)NC(=O)[C@H](CCCNC(=N)N)NC(=O)[C@H](CC(C)C)NC(=O)[C@H](Cc1ccccc1)NC(=O)[C@H](CC(N)=O)NC(=O)[C@H](C)NC(=O)[C@H](CC(C)C)NC(=O)[C@H](CCCNC(=N)N)NC(=O)[C@H](CCC(N)=O)NC(=O)[C@@H](NC(=O)[C@H](C)NC(=O)[C@@H]1CSSC[C@H](NC(=O)[C@@H](N)CCCCNC(=O)CC[C@H](NC(=O)CC[C@H](NC(=O)CCCCCCCCCCCCCCCCC(=O)O)C(=O)O)C(=O)O)C(=O)N[C@@H](CC(N)=O)C(=O)N[C@@H]([C@@H](C)O)C(=O)N[C@@H](C)C(=O)N[C@@H]([C@@H](C)O)C(=O)N1)[C@@H](C)O)C(=O)N[C@@H](CC(C)C)C(=O)N1CCC[C@H]1C(=O)N1CCC[C@H]1C(=O)N[C@H](C(=O)N[C@@H](CCC(=O)O)C(=O)N[C@H](C(=O)NCC(=O)N[C@@H](CO)C(=O)N[C@@H](CC(N)=O)C(=O)N[C@H](C(=O)N[C@@H](Cc1ccc(O)cc1)C(N)=O)[C@@H](C)O)C(C)C)[C@@H](C)O
EC50 (cAMP production) [1]: 0.349 nM | Ratio (EC50 hCTR / EC50 hAMYR3) [1]: 54 | EC50 (cAMP production) [2]: 18.9 nM

B2: Peptide 51 (SEQ ID NO: 51) (peptide)
peptide: K([γGlu-C18 diacid])KCNTATCATQRLANFLSHSS[Aib]NFGPILPPTHVGSNTY-NH2
modifications: disulfide 3-8; N-terminus assumed
SMILES: CC[C@H](C)[C@H](NC(=O)[C@@H]1CCCN1C(=O)CNC(=O)[C@H](Cc1ccccc1)NC(=O)[C@H](CC(N)=O)NC(=O)C(C)(C)NC(=O)[C@H](CO)NC(=O)[C@H](CO)NC(=O)[C@H](Cc1c[nH]cn1)NC(=O)[C@H](CO)NC(=O)[C@H](CC(C)C)NC(=O)[C@H](Cc1ccccc1)NC(=O)[C@H](CC(N)=O)NC(=O)[C@H](C)NC(=O)[C@H](CC(C)C)NC(=O)[C@H](CCCNC(=N)N)NC(=O)[C@H](CCC(N)=O)NC(=O)[C@@H](NC(=O)[C@H](C)NC(=O)[C@@H]1CSSC[C@H](NC(=O)[C@H](CCCCN)NC(=O)[C@@H](N)CCCCNC(=O)CC[C@H](NC(=O)CCCCCCCCCCCCCCCCC(=O)O)C(=O)O)C(=O)N[C@@H](CC(N)=O)C(=O)N[C@@H]([C@@H](C)O)C(=O)N[C@@H](C)C(=O)N[C@@H]([C@@H](C)O)C(=O)N1)[C@@H](C)O)C(=O)N[C@@H](CC(C)C)C(=O)N1CCC[C@H]1C(=O)N1CCC[C@H]1C(=O)N[C@H](C(=O)N[C@@H](Cc1c[nH]cn1)C(=O)N[C@H](C(=O)NCC(=O)N[C@@H](CO)C(=O)N[C@@H](CC(N)=O)C(=O)N[C@H](C(=O)N[C@@H](Cc1ccc(O)cc1)C(N)=O)[C@@H](C)O)C(C)C)[C@@H](C)O
EC50 (cAMP production) [1]: 0.126 nM | Ratio (EC50 hCTR / EC50 hAMYR3) [1]: 13 | EC50 (cAMP production) [2]: 1.65 nM

B3: Peptide 52 (SEQ ID NO: 52) (peptide)
peptide: K([γGlu-C18 diacid])KCNTATCATQRLANFLSHSS[Aib]NFGPILPPTRVGSNTY-NH2
modifications: disulfide 3-8; N-terminus assumed
SMILES: CC[C@H](C)[C@H](NC(=O)[C@@H]1CCCN1C(=O)CNC(=O)[C@H](Cc1ccccc1)NC(=O)[C@H](CC(N)=O)NC(=O)C(C)(C)NC(=O)[C@H](CO)NC(=O)[C@H](CO)NC(=O)[C@H](Cc1c[nH]cn1)NC(=O)[C@H](CO)NC(=O)[C@H](CC(C)C)NC(=O)[C@H](Cc1ccccc1)NC(=O)[C@H](CC(N)=O)NC(=O)[C@H](C)NC(=O)[C@H](CC(C)C)NC(=O)[C@H](CCCNC(=N)N)NC(=O)[C@H](CCC(N)=O)NC(=O)[C@@H](NC(=O)[C@H](C)NC(=O)[C@@H]1CSSC[C@H](NC(=O)[C@H](CCCCN)NC(=O)[C@@H](N)CCCCNC(=O)CC[C@H](NC(=O)CCCCCCCCCCCCCCCCC(=O)O)C(=O)O)C(=O)N[C@@H](CC(N)=O)C(=O)N[C@@H]([C@@H](C)O)C(=O)N[C@@H](C)C(=O)N[C@@H]([C@@H](C)O)C(=O)N1)[C@@H](C)O)C(=O)N[C@@H](CC(C)C)C(=O)N1CCC[C@H]1C(=O)N1CCC[C@H]1C(=O)N[C@H](C(=O)N[C@@H](CCCNC(=N)N)C(=O)N[C@H](C(=O)NCC(=O)N[C@@H](CO)C(=O)N[C@@H](CC(N)=O)C(=O)N[C@H](C(=O)N[C@@H](Cc1ccc(O)cc1)C(N)=O)[C@@H](C)O)C(C)C)[C@@H](C)O
EC50 (cAMP production) [1]: 0.089 nM | Ratio (EC50 hCTR / EC50 hAMYR3) [1]: 12 | EC50 (cAMP production) [2]: 1.1 nM

B4: Peptide 53 (SEQ ID NO: 53) (peptide)
peptide: K([γGlu-C18 diacid])KCNTATCATQRLANFLSHSS[Aib]NFGPILPPTPVGSNTY-NH2
modifications: disulfide 3-8; N-terminus assumed
SMILES: CC[C@H](C)[C@H](NC(=O)[C@@H]1CCCN1C(=O)CNC(=O)[C@H](Cc1ccccc1)NC(=O)[C@H](CC(N)=O)NC(=O)C(C)(C)NC(=O)[C@H](CO)NC(=O)[C@H](CO)NC(=O)[C@H](Cc1c[nH]cn1)NC(=O)[C@H](CO)NC(=O)[C@H](CC(C)C)NC(=O)[C@H](Cc1ccccc1)NC(=O)[C@H](CC(N)=O)NC(=O)[C@H](C)NC(=O)[C@H](CC(C)C)NC(=O)[C@H](CCCNC(=N)N)NC(=O)[C@H](CCC(N)=O)NC(=O)[C@@H](NC(=O)[C@H](C)NC(=O)[C@@H]1CSSC[C@H](NC(=O)[C@H](CCCCN)NC(=O)[C@@H](N)CCCCNC(=O)CC[C@H](NC(=O)CCCCCCCCCCCCCCCCC(=O)O)C(=O)O)C(=O)N[C@@H](CC(N)=O)C(=O)N[C@@H]([C@@H](C)O)C(=O)N[C@@H](C)C(=O)N[C@@H]([C@@H](C)O)C(=O)N1)[C@@H](C)O)C(=O)N[C@@H](CC(C)C)C(=O)N1CCC[C@H]1C(=O)N1CCC[C@H]1C(=O)N[C@H](C(=O)N1CCC[C@H]1C(=O)N[C@H](C(=O)NCC(=O)N[C@@H](CO)C(=O)N[C@@H](CC(N)=O)C(=O)N[C@H](C(=O)N[C@@H](Cc1ccc(O)cc1)C(N)=O)[C@@H](C)O)C(C)C)[C@@H](C)O
EC50 (cAMP production) [1]: 0.098 nM | Ratio (EC50 hCTR / EC50 hAMYR3) [1]: 2 | EC50 (cAMP production) [2]: 0.235 nM

B5: Peptide 54 (SEQ ID NO: 54) (peptide)
peptide: K([γGlu-C18 diacid])KCNTATCATQRLANFLSHSS[Aib]NFGPILPPTNVPSNTY-NH2
modifications: disulfide 3-8; N-terminus assumed
SMILES: CC[C@H](C)[C@H](NC(=O)[C@@H]1CCCN1C(=O)CNC(=O)[C@H](Cc1ccccc1)NC(=O)[C@H](CC(N)=O)NC(=O)C(C)(C)NC(=O)[C@H](CO)NC(=O)[C@H](CO)NC(=O)[C@H](Cc1c[nH]cn1)NC(=O)[C@H](CO)NC(=O)[C@H](CC(C)C)NC(=O)[C@H](Cc1ccccc1)NC(=O)[C@H](CC(N)=O)NC(=O)[C@H](C)NC(=O)[C@H](CC(C)C)NC(=O)[C@H](CCCNC(=N)N)NC(=O)[C@H](CCC(N)=O)NC(=O)[C@@H](NC(=O)[C@H](C)NC(=O)[C@@H]1CSSC[C@H](NC(=O)[C@H](CCCCN)NC(=O)[C@@H](N)CCCCNC(=O)CC[C@H](NC(=O)CCCCCCCCCCCCCCCCC(=O)O)C(=O)O)C(=O)N[C@@H](CC(N)=O)C(=O)N[C@@H]([C@@H](C)O)C(=O)N[C@@H](C)C(=O)N[C@@H]([C@@H](C)O)C(=O)N1)[C@@H](C)O)C(=O)N[C@@H](CC(C)C)C(=O)N1CCC[C@H]1C(=O)N1CCC[C@H]1C(=O)N[C@H](C(=O)N[C@@H](CC(N)=O)C(=O)N[C@H](C(=O)N1CCC[C@H]1C(=O)N[C@@H](CO)C(=O)N[C@@H](CC(N)=O)C(=O)N[C@H](C(=O)N[C@@H](Cc1ccc(O)cc1)C(N)=O)[C@@H](C)O)C(C)C)[C@@H](C)O
EC50 (cAMP production) [1]: 7.59 nM | Ratio (EC50 hCTR / EC50 hAMYR3) [1]: 0.2 | EC50 (cAMP production) [2]: 1.51 nM

K([AEEA-AEEA-γGlu-C18 diacid])GGGKCNTATCATQRLANFLVHSSNNFGPILPPTNVGSNTY-NH2 (disulfide 6-11) [Peptide 7 (SEQ ID NO: 7)]
EC50 (cAMP production) [1]: 0.173 nM | Ratio (EC50 hCTR / EC50 hAMYR3) [1]: 12 | EC50 (cAMP production) [2]: 2.16 nM

B6: Peptide 55 (SEQ ID NO: 55) (peptide)
peptide: K([γGlu-C18 diacid])KCNTATCATQRLANFLSHSS[Aib]NFGPILPPTNVGSPTY-NH2
modifications: disulfide 3-8; N-terminus assumed
SMILES: CC[C@H](C)[C@H](NC(=O)[C@@H]1CCCN1C(=O)CNC(=O)[C@H](Cc1ccccc1)NC(=O)[C@H](CC(N)=O)NC(=O)C(C)(C)NC(=O)[C@H](CO)NC(=O)[C@H](CO)NC(=O)[C@H](Cc1c[nH]cn1)NC(=O)[C@H](CO)NC(=O)[C@H](CC(C)C)NC(=O)[C@H](Cc1ccccc1)NC(=O)[C@H](CC(N)=O)NC(=O)[C@H](C)NC(=O)[C@H](CC(C)C)NC(=O)[C@H](CCCNC(=N)N)NC(=O)[C@H](CCC(N)=O)NC(=O)[C@@H](NC(=O)[C@H](C)NC(=O)[C@@H]1CSSC[C@H](NC(=O)[C@H](CCCCN)NC(=O)[C@@H](N)CCCCNC(=O)CC[C@H](NC(=O)CCCCCCCCCCCCCCCCC(=O)O)C(=O)O)C(=O)N[C@@H](CC(N)=O)C(=O)N[C@@H]([C@@H](C)O)C(=O)N[C@@H](C)C(=O)N[C@@H]([C@@H](C)O)C(=O)N1)[C@@H](C)O)C(=O)N[C@@H](CC(C)C)C(=O)N1CCC[C@H]1C(=O)N1CCC[C@H]1C(=O)N[C@H](C(=O)N[C@@H](CC(N)=O)C(=O)N[C@H](C(=O)NCC(=O)N[C@@H](CO)C(=O)N1CCC[C@H]1C(=O)N[C@H](C(=O)N[C@@H](Cc1ccc(O)cc1)C(N)=O)[C@@H](C)O)C(C)C)[C@@H](C)O
EC50 (cAMP production) [1]: 0.678 nM | Ratio (EC50 hCTR / EC50 hAMYR3) [1]: 3 | EC50 (cAMP production) [2]: 1.87 nM
